Measurements reported in US20210063414A1, “METHODS FOR PREVENTING AND/OR TREATING BONE LOSS CONDITIONS BY MODULATING IRISIN” (Dana-Farber Cancer Institute, Inc., priority 2018, published 2021).

Tests used:
Experiment in all cases: Crosslinking/co-immunoprecipitation/mass spectrometry (TMT quantitative proteomics) to identify irisin receptors
Format in all cases: binding
[1] = biological target: T1, MLO-Y4 cell surface proteins (Mus musculus, UniProt Q99KR7); details: co-precipitated protein Ppif (PPIF_MOUSE)
T1 construct: endogenous in cells; host or cells: MLO-Y4
Summary of the method: (§1)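 Mouse MLO-Y4 cells were switched to serum-free FreeStyle medium for 4 h, chilled, then exposed to 10 nM His-tagged irisin (or adipsin as control) for 20 min. Cells were crosslinked with 1.5 mM DTSSP (30 min, ice), and bound proteins were pulled down on Ni-NTA and eluted with 250 mM imidazole. Eluates were separated by SDS-PAGE, trypsin-digested in gel, TMT 6-plex labelled and quantified by MS3-based LC-MS/MS on an Orbitrap Fusion Lumos.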

[2] = biological target: T2, MLO-Y4 cell surface proteins (Mus musculus, UniProt Q9DCW4); details: co-precipitated protein Etfb (ETFB_MOUSE)
T2 construct: endogenous in cells; host or cells: MLO-Y4
T2 sequence (Q9DCW4 1-255): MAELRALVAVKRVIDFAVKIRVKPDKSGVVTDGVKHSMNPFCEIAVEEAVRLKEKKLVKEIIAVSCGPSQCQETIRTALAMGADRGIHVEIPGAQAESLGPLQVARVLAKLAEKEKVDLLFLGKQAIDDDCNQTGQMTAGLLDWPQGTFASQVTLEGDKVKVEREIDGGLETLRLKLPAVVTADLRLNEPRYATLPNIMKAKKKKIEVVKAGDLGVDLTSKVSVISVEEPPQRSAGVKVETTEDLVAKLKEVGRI
Summary of the method: as §1

[3] = biological target: T3, MLO-Y4 cell surface proteins (Mus musculus, UniProt G3X9C2); details: co-precipitated protein Nccrp1 (FBX50_MOUSE)
T3 construct: endogenous in cells; host or cells: MLO-Y4
T3 sequence (G3X9C2 1-266): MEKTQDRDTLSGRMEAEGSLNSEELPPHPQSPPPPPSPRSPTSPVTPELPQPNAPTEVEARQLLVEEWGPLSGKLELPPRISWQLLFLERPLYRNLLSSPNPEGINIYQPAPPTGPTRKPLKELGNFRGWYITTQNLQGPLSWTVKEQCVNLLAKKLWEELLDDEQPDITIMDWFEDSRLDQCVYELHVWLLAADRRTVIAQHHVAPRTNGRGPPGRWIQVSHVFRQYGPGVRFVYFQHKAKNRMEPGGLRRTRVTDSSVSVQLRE
Summary of the method: as §1

[4] = biological target: T4, MLO-Y4 cell surface proteins (Mus musculus, UniProt O70404); details: co-precipitated protein Vamp8 (VAMP8_MOUSE)
T4 construct: endogenous in cells; host or cells: MLO-Y4
T4 sequence (O70404 1-101): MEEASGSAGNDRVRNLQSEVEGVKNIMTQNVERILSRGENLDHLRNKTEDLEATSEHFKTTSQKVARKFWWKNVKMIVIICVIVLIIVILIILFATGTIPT
Summary of the method: as §1

T1 sequence (Q99KR7 30-206): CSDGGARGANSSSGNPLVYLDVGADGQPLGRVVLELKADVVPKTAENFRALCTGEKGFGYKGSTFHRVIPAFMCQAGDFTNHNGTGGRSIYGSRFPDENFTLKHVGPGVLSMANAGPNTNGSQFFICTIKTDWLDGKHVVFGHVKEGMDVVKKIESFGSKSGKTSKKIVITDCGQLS

B1: irisin: secreted cleaved form of FNDC5; recombinant human/mouse irisin with C-terminal his tag produced in HEK293 cells (protein)
chain: DSPSAPVNVTVRHLKANSAVVSWDVLEDEVVIGFAISQQKKDVRMLRFIQEVNTTTRSCALWDLEEDTEYIVHVQAISIQGQSPASEPVLFKTPREAEKMASKNKDEVTMKE
modifications: left off: small tags and cut ends
notes: secreted cleaved form of FNDC5; recombinant human/mouse irisin with C-terminal his tag produced in HEK293 cells
[1]
  TMT signal-to-noise ratio: 49.7858
  irisin/adipsin TMT signal-to-noise ratio: 0.199
[2]
  TMT signal-to-noise ratio: 409.026
  irisin/adipsin TMT signal-to-noise ratio: 0.560
[3]
  TMT signal-to-noise ratio: 0
  irisin/adipsin TMT signal-to-noise ratio: 0.000
[4]
  TMT signal-to-noise ratio: 169.775
  irisin/adipsin TMT signal-to-noise ratio: 0.566
